Source: patent US20200199204A1 (UNITED STATES OF AMERICA AS REPRESENTED BY THE SECRETARY …, published 2020)
Substitutions are numbered along the chain they refer to.

Key:
Experiment in all cases: cell-based or functional assay
[1] = target: SIV Env of SIVmac251.30 (nonHIV control), on Env-pseudovirus (SIVmac251.30)
[2] = target: HIV-1 Env of strain TH976.17 (clade AE), on Env-pseudovirus (HIV-1 strain TH976.17)
[3] = target: HIV-1 Env of strain CNE3 (clade AE), on Env-pseudovirus (HIV-1 strain CNE3)

Measured: IC50, neutralization of Env-pseudovirus (TZM-bl assay)

B1: CAP256-VRC26.10 (antibody, V domains shown)
VH: QAILVESGGGVVQPGRSLRLSCAASQFTFSGHGLHWVRQAPGKGLEWVASISFAGTKMDYADSVKGRFAISRDNSKNTLYLQMNSLRVEDTALYYCAKDMREYECEYWTSDYYDFGRPQPCIDRRGVVGIFDMWGQGTMVTVST
VL: QSVLTQPPSVSAAPGQKVTISCSGSSSNIGDNYVSWYQHLPGTAPKLLIYENTRRPSGIPDRFSGSKSGTSATLAITGLQTGDEADYYCGTWDVRPNRGAVFGTGTKVTVLG
> 50 µg/mL: [1] | [2] | [3]

B2: CAP256-VRC26.08 (antibody, V domains shown)
VH: EVQLVESGGGVVQPGRSLTLSCAASQFTFSNYGMHWVRQAPGKGLEWVASVSNDGTKKYHGDSVWGRFTISRDNSKNTLFLQMSSLRAEDTAVYFCVRDQREDECEEWWSDYYDFGRELPCRKFRGLGLAGIFDIWGHGTMVTVSS
VL: QSALTQPPSVSAAPGQKVTISCSGNSSNIGNNFVSWYQQVPGTAPKLLLYETYRRPSGIPDRFSGSKSGTSATLAITGLQTGDEADYYCTVWGVRKGVGAVFGTGTKVTVLG
> 50 µg/mL: [1] | [2] | [3]

B3: CAP256-VRC26.09 (antibody, V domains shown)
VH: EVQLVESGGGVVQPGRSLTLSCAASQFNFANYGMHWVRQAPGKGLEWVASISNDGTKKYHEESVWGRFTISKDNSKSTLFLQMNSLRIEDTALYFCVKDQREDECEEWWSDYYDFGRELPCRKSRGLGLAGIFDMWGHGTMVTVSS
VL: B2 VL with V40L, L49I, T52N, Y53N, T77S, Y88W, T90A, K96R, V98A, T104A
> 50 µg/mL: [1] | [2] | [3]
